According to the FLAb antibody collection:

Assay: melting temperature
Details: Circular dichroism
Work on “QVQLVESGGGLVQPGGSLRLSCAASGDTYGSYWMGWFRQAPGQGLEAVAAINRGGGYTVYADSVKGRFTISRDNSKNTLYLQMNSLRAEDTAVYYCAASGVLGGLHEDWFNYWGQGTLVTVSSHHHHHH” yielded a Tm of 74 °C. For “QVQLVESGGGLVQPGGSLRLSCAASGYTYISGWFRQAPGQGLEAVAAIRSSDGTTYYADSVKGRFTISRDNSKNTLYLQMNSLRAEDTAVYYCAATEVAGWPLDIGIYDYWGQGTLVTVSS”, the Tm was 63.4 °C. Sequence “TRVDQTPRTATKETGESLTIICVLTDTSCVLHSTSWFRKNPGTTDWERMSIGGRYVESVNKGAKSFSLRIKDLTVADSATYYCKAQSHEYMEVCPYDWYDGAGTVLTVK” has a Tm of 55 °C. In the case of “TRVDQTPRTATKETGESLTINCVLTGTSCSLYSTSWFRKNPGTTDWERISIGGRYVESVNKGAKSFSLRIKDLTVADSATYYCKAQKHCGYDWYDGAGTALTVK”, the Tm is reported as 72 °C.

Same assay, conditions: DSF (SYPRO)
“QVQLVESGGGLVQAGGSLRLSCAVSGLGAHRVGWFRRAPGKEREFVAAIGANGGNTNYLDSVKGRFTISRDNAKNTIYLQMNSLKPQDTAVYYCAARDIETAEYTYWGQGTQVTVSS” gave a Tm of 72.8 °C. Sequence “QVQLVESGGGSVQAGGSLRLSCAASGSISSITYLGWFRQAPGKEREGVAALSTSSGTTYYADSVKGRFTVSLDNAENTVYLQMNSLKPEDTALYYCAAASSGSSSPLSSSSYTYWGQGTQVTVSS” has a Tm of 95 °C.

Same assay, conditions: nanoDSF
“TGGALVQAGGSLRLSCAASETSSVSLSWMGWYRQAPGKERELVAGINRDRPKYKESVKGRFTISRDNAQNTVYLQMNSLKPEDTAVYYCNTVPPRGDYWGQGTQV” gave a Tm of 65.7 °C. In the case of “TGGGLVQAGASLRLSCAASGRTFSTDHMGWFRQAPQKEREFVAAINAWSGLSIYYADSVKGRFTISRDNDKKTAYLQMNSLKPEDTAVYYCAAKEMGRGWVPQSSDDYDAWGQGTQV”, the Tm is reported as 66.6 °C. “TGGGLVQPGGSLRLSCAASGSISSINAMGWYRQAPGKQRELVAAITIRGNTVYGDSVKGRFTVSRDNAKNTVYLQMNSLKPEDTAVYYCNAKSTPSLYAAGYGVDYWGEGTLV” showed a Tm of 69.8 °C. Sequence “TGGGWVQAGGSLRLSCAASGRAASGNAMAWFRQAPGKEREFVALISWSGGRPYYANSVKGRFAISRDNATNTVYLQMNRLKPEDTAVYYCAASPTIAILPTPYDYWGQGTQV” has a Tm of 75.3 °C.
